Data on two molecules can be found in patent US20220291238A1, “Methods for Predicting Treatment Response in Ulcerative Colitis” (Janssen Biotech, Inc., priority 2021, published 2022).

For one series, the system named is TRUC mice. The experiment in a line: TRUC mouse chronic colitis model, in vivo treatments. The settings on record: TRUC Il22−/− mice. As to the method:
In vivo treatments: Neutralizing anti-IL-22 mAb (clone IL22-01) and recombinant IL-22 (rIL-22) were developed and provided by Pfizer. […] of IL22-01 (per mouse) were administered i.p. every 3 to 4 days. […] of rIL-22 (per mouse) were administered i.p. at days 0, 4, 8 and 12, while mice were culled at day 14. Anti-CXCR2 (clone 242216, R&D Systems) was administered i.p. at a dose of […] per mouse at days 0, 3, 7, 10 and 14, while mice were culled at day 15.
Isolation of colonic LP leukocytes (cLPMCs): Mice were euthanized by either cervical dislocation or by a rising concentration of carbon dioxide gas, and then dissected in a laminar flow cabinet under aseptic conditions. Colons were opened longitudinally, cleaned thoroughly with ice-cold PBS and cut into 1-2 mm pieces and washed with 10 ml 5 mM EDTA, 1 mM Hepes in HBSS (Gibco; Gaithersburg, Md.) in a shaking water bath (300 rpm) at 37° C. for 20 min. Tissue was then vortexed vigorously for 10 seconds and passed through a […] cell strainer and collected in Ctubes (Miltenyi; Bergisch Gladbach, Germany) in complete RPMI (Gibco) containing 10% fetal calf serum, 0.25 mg/ml Collagenase D (Roche; Basel, Switzerland), 1.5 mg/ml Dispase II (Roche) and […] DNase (Roche) and put in a shaking water bath (300 rpm) at 37° C. for 40 minutes. Before and after the 40 minute incubation C-tubes were vigorously shaken for 30 seconds. Solutions were then passed through […] cell strainers and washed with ice-cold PBS. […] Cells were resuspended in 1 ml PBS, counted, and immediately used for further experiments.
Gene expression analysis: Whole tissue colonic fragments or sorted cells were lysed in 1 ml TRIsure (Bioline) and stored at −80° C. pending further processing. […] Concentration of RNA in each sample was measured using NanoDrop. […] Quantitative PCR was performed using QuantiTect primers (Qiagen) and Quantitect SybrGreen MasterMix (Qiagen) on a LightCycler 480 (Roche). Samples were analyzed in triplicates and relative expression of mRNAs was determined after normalization against the housekeeping gene Beta-2-Microglobulin (B2M). […]

The test system of a further series is human colonoids. The experiment in a line: Cytokine treatment of human colonoids, RNA-seq. It is filed as cell-based. As to the method:
All patients provided informed consent (NRES/IRAS id:15/LO/1998). Subsequent establishment of human colonoids was performed as previously described by Sato et al (48). The crypts were cultured in growth medium containing advanced Dulbecco's modified Eagle's medium/F12, penicillin/streptomycin (100 units/mL), 10 mM HEPES, 2 mM Glutamax, supplements N2 (1×) and B27 (1×), 50 ng/mL mouse epidermal growth factor (all from Life Technologies; Carlsbad, Calif.), 1 mM N-acetylcysteine (Sigma-Aldrich; St. Louis, Mo.), 50% v/v Wnt3a conditioned medium, 10% v/v R-spondin-1 conditioned medium, 100 ng/mL murine recombinant noggin protein (Peprotech; Rocky Hill, N.J.), 10 nM gastrin (Sigma-Aldrich), 500 nM A83-01 (Bio-techne; Minneapolis, Minn.), 10 μM SB202190 (Sigma-Aldrich) and 10 mM Nicotinamide (Sigma-Aldrich). 10 μM Y-27632 (Sigma-Aldrich) was added to the culture medium for the initial 3 days. Medium was changed every 2 days. […] During the last 24 hours in differentiation medium, human colonoids were treated with human recombinant IL22 (10 ng/mL), IL17A (50 ng/mL), TNFα (10 ng/mL), IFNγ (20 ng/mL), IL13 (10 ng/mL) and IL22 (10 ng/mL)/IL17A (50 ng/mL) combination.
RNA extraction: Colonoids and LPMC were treated in a similar fashion. Cells were lysed and RNA was extracted using the RNAeasy kit (Qiagen; Hilden, Germany). This step was optimized balancing the effectiveness of elimination of DNA quantified (Qubit dsDNA HS assay kit) versus the loss of quantity of RNA (Qubit RNA BR assay kit). Optimal DNAse I concentration was determined to be ×5 the standard concentration. 500 ng of cDNA was then created using Revertaid cDNA synthesis kit (ThermoFisher) and diluted to a concentration of 6.25 ng/μl. Harvested colonoids were put in Qiazol and then RNA was extracted with the RNAeasy kit (Qiagen) as per manufacturer's guidelines. cDNA was created using the Revertaid cDNA synthesis kit (ThermoFisher).
Library preparation and sequencing: A total amount of 3 μg RNA per sample was used as input material for the RNA sample preparations. Sequencing libraries were generated using NEBNextR Ultra™ RNA Library Prep Kit for IlluminaR (NEB, Ipswich, Mass.) following manufacturer's recommendations and index codes were added to attribute sequences to each sample. Briefly, mRNA was purified from total RNA using poly-T oligo-attached magnetic beads. Fragmentation was carried out using divalent cations under elevated temperature in NEBNext First Strand Synthesis Reaction Buffer (5×). First strand cDNA was synthesized using random hexamer primer and M-MuLV Reverse Transcriptase (RNase H-). Second strand cDNA synthesis was subsequently performed using DNA Polymerase I and RNase H. Remaining overhangs were converted into blunt ends via exonuclease/polymerase activities. After adenylation of 3′ ends of DNA fragments, NEBNext Adaptor with hairpin loop structure were ligated to prepare for hybridization. In order to select cDNA fragments of preferentially 150˜200 bp in length, the library fragments were purified with AMPure XP system (Beckman Coulter, Brea, Calif.). Then 3 μl USER Enzyme (NEB) was used with size-selected, adaptor-ligated cDNA at 37° C. for 15 minutes followed by 5 minutes at 95° C. before PCR. Then PCR was performed with Phusion High-Fidelity DNA polymerase, Universal PCR primers and Index (X) Primer. At last, PCR products were purified (AMPure XP system) and library quality was assessed on the Agilent Bioanalyzer 2100 system. The clustering of the index-coded samples was performed on a cBot Cluster Generation System using HiSeq PE Cluster Kit cBot-HS (Illumina; San Diego, Calif.) according to the manufacturer's instructions. After cluster generation, the paired-end libraries were sequenced on an Illumina HiSeq platform. […]

A further series relates to mouse colonic organoids. Nature of the series: IL22 treatment of mouse colonic organoids, chemokine expression. Format: cell-based. As to the method:
Mouse colonoids were cultured in the same medium as above but without gastrin SB202190, Nicotinamide, A83-01 and with the addition of 3 μM CHIR99021 (Cambridge Biosciences; Cambridge, United Kingdom). To differentiate them, Wnt3a was withdrawn for 3 days. During the last 24 hours in differentiation medium, mouse colonoids were treated with mouse recombinant IL22 (10 ng/mL) and IL17A (50 ng/mL).
Next, whether IL22 mediated regulation of neutrophil-active chemokine expression was functionally important in colitis was investigated. First, it was evaluated whether IL22 mediated regulation of human colonic epithelial function was conserved across species. […] In the CC family of chemokines, induction of Ccl7 and weaker induction of Ccl2 by IL22, with little or no impact on other CC family members, was observed. These findings were validated using real time PCR, which confirmed time and dose dependent induction of CXC-family chemokine transcripts. As observed in human colonoids, IL22 induced expression of Cxcl1 and Cxcl5, and was synergistically augmented by IL17A. These observations were confirmed at the protein level by measuring chemokine production in supernatants of murine colonic organoids cultured with recombinant mouse cytokines.

In the case of “rIL22: recombinant IL-22 developed and provided by Pfizer, given i.p. to mice”, in the series on TRUC mice, the “Cxcl1 and Cxcl5 expression in the colon” value is given as “reinstated”; the “disease activity (colitis)” value is “restored colitis”; the “neutrophil recruitment in the colon” value is on record as “restored excessive neutrophil recruitment”.

B1: IL22: human recombinant IL22 (10 ng/mL) on human colonoids; mouse recombinant IL22 on mouse colonoids (protein, UniProt Q9GZX6 34-179, looked up)
Interleukin-22: APISSHCRLDKSNFQQPYITNRTFMLAKEASLADNNTDVRLIGEKLFHGVSMSERCYLMKQVLNFTLEEVLFPQSDRFQPYMQEVVPFLARLSNRLSTCHIEGDDLHIQRNVQKLKDTVKKLGESGEIKAIGELDLLFMSLRNACI
Consider B1, for which the downregulated transcripts with human colonoids (FDR<0.01) is recorded as 672. The upregulated transcripts in the series with human colonoids (FDR<0.01) is 579. Further, the differentially expressed transcripts in the series with human colonoids (IL22 10 ng/mL, 24 hours, FDR<0.01) is listed as 1251 transcripts. Besides, the “regulation of chemokine expression” value was “preferentially upregulated the neutrophil-active CXC family chemokines CXCL1, CXCL2, CXCL3, CXCL4, CXCL5, CXCL6 and CXCL8” in the series on human colonoids (human colonoids, 24 hours); “selectively induced expression of the neutrophil-active chemokines Cxcl1, Cxcl3 and Cxcl5” in the series with mouse colonic organoids. Besides, the “transcripts uniquely regulated by IL22” value in the series with human colonoids (of the 1251 IL22-regulated transcripts) was 322.
